B1: DART-2 (bispecific antibody)
chain 1: QLVLTQSPSASASLGSSVKLTCTLSSGHKTDTIDWYQQQPGKAPRYLMKLEGSGSYNKGSGVPDRFGSGSSSGADWYLTISSLQSEDEADYYCGTDYPGNYLFGGGTQLTVLGGGGSGGGGEVQLVESGGGLVQPGGSLRLSCAASGFTFSTYAMNWVRQAPGKGLEWVGRIRSKYNNYATYYADSVKGRFTISRDDSKNSLYLQMNSLKTEDTAVYYCVRHGNFGNSYVSWFAYWGQGTLVTVSSGGCGGGKVAALKEKVAALKEKVAALKEKVAALKE
chain 2: QAVVTQEPSLTVSPGGTVTLTCRSSTGAVTTSNYANWVQQKPGQAPRGLIGGTNKRAPWTPARFSGSLLGGKAALTITGAQAEDEADYYCALWYSNLWVFGGGTKLTVLGGGGSGGGGQEQLVESGGGLVQPGGSLRLSCAASGFTFSDYYMSWVRQAPGKGLEWVATIYPSSGKTYYADSVKGRFTISSDNAKNSLYLQMNSLRAEDTAVYYCARDSYADDAALFDIWGQGTTVTVSSGGCGGGEVAALEKEVAALEKEVAALEKEVAALEK
notes: ROR1×CD3 two chain diabody; VL(2): R71W; VH: parental
B2: DART-3 (bispecific antibody)
chain 1: QLVLTQSPSASASLGSSVKLTCTLSSGHKTDTIDWYQQQPGKAPRYLMNLEGSGSYNKGSGVPDRFGSGSSSGADRYLTISSLQSEDEADYYCGTDYPGNYLFGGGTQLTVLGGGGSGGGGEVQLVESGGGLVQPGGSLRLSCAASGFTFSTYAMNWVRQAPGKGLEWVGRIRSKYNNYATYYADSVKGRFTISRDDSKNSLYLQMNSLKTEDTAVYYCVRHGNFGNSYVSWFAYWGQGTLVTVSSGGCGGGKVAALKEKVAALKEKVAALKEKVAALKE
chain 2: QAVVTQEPSLTVSPGGTVTLTCRSSTGAVTTSNYANWVQQKPGQAPRGLIGGTNKRAPWTPARFSGSLLGGKAALTITGAQAEDEADYYCALWYSNLWVFGGGTKLTVLGGGGSGGGGQEQLVESGGGLVQPGGSLRLSCAASGFTFSDYYMSWVRQAPGKGLEWVATIYPSSGKTYYADSVKGRFTISSDNAKNSLYLQMNSLRAEDTAVYYCARDSYADDAALFDIWGQGTTVTVSSGGCGGGEVAALEKEVAALEKEVAALEKEVAALEK
notes: ROR1×CD3 two chain diabody; VL(3): K49N; VH: parental
B3: DART-5 (bispecific antibody)
chain 1: QLVLTQSPSASASLGSSVKLTCTLSSGHKTDTIDWYQQQPGKAPRYLMKLEGSGSYSKGSGVPDRFGSGSSSGADRYLTISSLQSEDEADYYCGTDYPGNYLFGGGTQLTVLGGGGSGGGGEVQLVESGGGLVQPGGSLRLSCAASGFTFSTYAMNWVRQAPGKGLEWVGRIRSKYNNYATYYADSVKGRFTISRDDSKNSLYLQMNSLKTEDTAVYYCVRHGNFGNSYVSWFAYWGQGTLVTVSSGGCGGGKVAALKEKVAALKEKVAALKEKVAALKE
chain 2: QAVVTQEPSLTVSPGGTVTLTCRSSTGAVTTSNYANWVQQKPGQAPRGLIGGTNKRAPWTPARFSGSLLGGKAALTITGAQAEDEADYYCALWYSNLWVFGGGTKLTVLGGGGSGGGGQEQLVESGGGLVQPGGSLRLSCAASGFTFSDYYMSWVRQAPGKGLEWVATIYPSSGKTYYADSVKGRFTISSDNAKNSLYLQMNSLRAEDTAVYYCARDSYADDAALFDIWGQGTTVTVSSGGCGGGEVAALEKEVAALEKEVAALEKEVAALEK
notes: ROR1×CD3 two chain diabody; VL(5): N54S; VH: parental
B4: DART-12 (bispecific antibody)
chain 1: QLVLTQSPSASASLGSSVKLTCTLSSGHKTDTIDWYQQQPGKAPRYLMKLEGSGSYNKGSGVPDRFGSGISSGADWYLTISSLQSEDEADYYCGTDYPGNYLFGGGTQLTVLGGGGSGGGGEVQLVESGGGLVQPGGSLRLSCAASGFTFSTYAMNWVRQAPGKGLEWVGRIRSKYNNYATYYADSVKGRFTISRDDSKNSLYLQMNSLKTEDTAVYYCVRHGNFGNSYVSWFAYWGQGTLVTVSSGGCGGGKVAALKEKVAALKEKVAALKEKVAALKE
chain 2: QAVVTQEPSLTVSPGGTVTLTCRSSTGAVTTSNYANWVQQKPGQAPRGLIGGTNKRAPWTPARFSGSLLGGKAALTITGAQAEDEADYYCALWYSNLWVFGGGTKLTVLGGGGSGGGGQEQLVESGGGLVQPGGSLRLSCAASGFTFSDYYMSWVRQAPGKGLEWVATIYPSSGKTYYADSVKGRFTISSDNAKNSLYLQMNSLRAEDTAVYYCARDSYADDAALFDIWGQGTTVTVSSGGCGGGEVAALEKEVAALEKEVAALEKEVAALEK
notes: ROR1×CD3 two chain diabody; VL(12): S66I/R71W; VH: parental
B5: DART-11 (bispecific antibody)
chain 1: QLVLTQSPSASASLGSSVKLTCTLSSGHKTDTIDWYQQQPGKAPRYLMKLEGSGSYNKGSGVPDRFGSGSSSGADWYLTISSLQSEDEADYYCGTDNPGNYLFGGGTQLTVLGGGGSGGGGEVQLVESGGGLVQPGGSLRLSCAASGFTFSTYAMNWVRQAPGKGLEWVGRIRSKYNNYATYYADSVKGRFTISRDDSKNSLYLQMNSLKTEDTAVYYCVRHGNFGNSYVSWFAYWGQGTLVTVSSGGCGGGKVAALKEKVAALKEKVAALKEKVAALKE
chain 2: QAVVTQEPSLTVSPGGTVTLTCRSSTGAVTTSNYANWVQQKPGQAPRGLIGGTNKRAPWTPARFSGSLLGGKAALTITGAQAEDEADYYCALWYSNLWVFGGGTKLTVLGGGGSGGGGQEQLVESGGGLVQPGGSLRLSCAASGFTFSDYYMSWVRQAPGKGLEWVATIYPSSGKTYYADSVKGRFTISSDNAKNSLYLQMNSLRAEDTAVYYCARDSYADDAALFDIWGQGTTVTVSSGGCGGGEVAALEKEVAALEKEVAALEKEVAALEK
notes: ROR1×CD3 two chain diabody; VL(11): R71W/Y92N; VH: parental
B6: DART-6 (bispecific antibody)
chain 1: QLVLTQSPSASASLGSSVKLTCTLSSGHKTDTIDWYQQQPGKAPRYLMKLEGSGSYNKGSGVPDRFGSGISSGADRYLTISSLQSEDEADYYCGTDYPGNYLFGGGTQLTVLGGGGSGGGGEVQLVESGGGLVQPGGSLRLSCAASGFTFSTYAMNWVRQAPGKGLEWVGRIRSKYNNYATYYADSVKGRFTISRDDSKNSLYLQMNSLKTEDTAVYYCVRHGNFGNSYVSWFAYWGQGTLVTVSSGGCGGGKVAALKEKVAALKEKVAALKEKVAALKE
chain 2: QAVVTQEPSLTVSPGGTVTLTCRSSTGAVTTSNYANWVQQKPGQAPRGLIGGTNKRAPWTPARFSGSLLGGKAALTITGAQAEDEADYYCALWYSNLWVFGGGTKLTVLGGGGSGGGGQEQLVESGGGLVQPGGSLRLSCAASGFTFSDYYMSWVRQAPGKGLEWVATIYPSSGKTYYADSVKGRFTISSDNAKNSLYLQMNSLRAEDTAVYYCARDSYADDAALFDIWGQGTTVTVSSGGCGGGEVAALEKEVAALEKEVAALEKEVAALEK
notes: ROR1×CD3 two chain diabody; VL(6): S66I; VH: parental
B7: DART-14 (bispecific antibody)
chain 1: QLVLTQSPSASASLGSSVKLTCTLSSGHKTDTIDWYQQQPGKAPRYLMKLEGSGSYNKGSGVPDRFGSGSSSGADRYLTISSLQSEDEADYYCGTDYPGNYLFGGGTQLTVLGGGGSGGGGEVQLVESGGGLVQPGGSLRLSCAASGFTFSTYAMNWVRQAPGKGLEWVGRIRSKYNNYATYYADSVKGRFTISRDDSKNSLYLQMNSLKTEDTAVYYCVRHGNFGNSYVSWFAYWGQGTLVTVSSGGCGGGKVAALKEKVAALKEKVAALKEKVAALKE
chain 2: QAVVTQEPSLTVSPGGTVTLTCRSSTGAVTTSNYANWVQQKPGQAPRGLIGGTNKRAPWTPARFSGSLLGGKAALTITGAQAEDEADYYCALWYSNLWVFGGGTKLTVLGGGGSGGGGQEQLVESGGGLVQPGGSLRLSCAASGFTFSDYYMSWVRQAPGKGLEWVATIYPSSGKTYYADSVKGRLTISSDNAKNSLYLQMNSLRAEDTAVYYCARDSYADDAALFDIWGQGTTVTVSSGGCGGGEVAALEKEVAALEKEVAALEKEVAALEK
notes: ROR1×CD3 two chain diabody; VL: parental; VH(1): F67L
B8: DART-10 (bispecific antibody)
chain 1: QLVLTQSPSASASLGSSVKLTCTLSSGHKTDTIDWYQQQPGKAPRYLMKLEGSGSYNKGSGVPDRFGSGSSSGADRYLTISSLQSEDEADYYCGTDNPGNYLFGGGTQLTVLGGGGSGGGGEVQLVESGGGLVQPGGSLRLSCAASGFTFSTYAMNWVRQAPGKGLEWVGRIRSKYNNYATYYADSVKGRFTISRDDSKNSLYLQMNSLKTEDTAVYYCVRHGNFGNSYVSWFAYWGQGTLVTVSSGGCGGGKVAALKEKVAALKEKVAALKEKVAALKE
chain 2: QAVVTQEPSLTVSPGGTVTLTCRSSTGAVTTSNYANWVQQKPGQAPRGLIGGTNKRAPWTPARFSGSLLGGKAALTITGAQAEDEADYYCALWYSNLWVFGGGTKLTVLGGGGSGGGGQEQLVESGGGLVQPGGSLRLSCAASGFTFSDYYMSWVRQAPGKGLEWVATIYPSSGKTYYADSVKGRFTISSDNAKNSLYLQMNSLRAEDTAVYYCARDSYADDAALFDIWGQGTTVTVSSGGCGGGEVAALEKEVAALEKEVAALEKEVAALEK
notes: ROR1×CD3 two chain diabody; VL(10): Y92N; VH: parental
B9: DART-13 (bispecific antibody)
chain 1: QLVLTQSPSASASLGSSVKLTCTLSSGHKTDTIDWYQQQPGKAPRYLMKLEGSGSYNKGSGVPDRFGSGISSGADWYLTISSLQSEDEADYYCGTDNPGNYLFGGGTQLTVLGGGGSGGGGEVQLVESGGGLVQPGGSLRLSCAASGFTFSTYAMNWVRQAPGKGLEWVGRIRSKYNNYATYYADSVKGRFTISRDDSKNSLYLQMNSLKTEDTAVYYCVRHGNFGNSYVSWFAYWGQGTLVTVSSGGCGGGKVAALKEKVAALKEKVAALKEKVAALKE
chain 2: QAVVTQEPSLTVSPGGTVTLTCRSSTGAVTTSNYANWVQQKPGQAPRGLIGGTNKRAPWTPARFSGSLLGGKAALTITGAQAEDEADYYCALWYSNLWVFGGGTKLTVLGGGGSGGGGQEQLVESGGGLVQPGGSLRLSCAASGFTFSDYYMSWVRQAPGKGLEWVATIYPSSGKTYYADSVKGRFTISSDNAKNSLYLQMNSLRAEDTAVYYCARDSYADDAALFDIWGQGTTVTVSSGGCGGGEVAALEKEVAALEKEVAALEKEVAALEK
notes: ROR1×CD3 two chain diabody; VL(13): S66I/R71W/Y92N; VH: parental
B10: DART-4 (bispecific antibody)
chain 1: QLVLTQSPSASASLGGSVKLTCTLSSGHKTDTIDWYQQQPGKAPRYLMKLEGSGSYNKGSGVPDRFGSGSSSGADRYLTISSLQSEDEADYYCGTDYPGNYLFGGGTQLTVLGGGGSGGGGEVQLVESGGGLVQPGGSLRLSCAASGFTFSTYAMNWVRQAPGKGLEWVGRIRSKYNNYATYYADSVKGRFTISRDDSKNSLYLQMNSLKTEDTAVYYCVRHGNFGNSYVSWFAYWGQGTLVTVSSGGCGGGKVAALKEKVAALKEKVAALKEKVAALKE
chain 2: QAVVTQEPSLTVSPGGTVTLTCRSSTGAVTTSNYANWVQQKPGQAPRGLIGGTNKRAPWTPARFSGSLLGGKAALTITGAQAEDEADYYCALWYSNLWVFGGGTKLTVLGGGGSGGGGQEQLVESGGGLVQPGGSLRLSCAASGFTFSDYYMSWVRQAPGKGLEWVATIYPSSGKTYYADSVKGRFTISSDNAKNSLYLQMNSLRAEDTAVYYCARDSYADDAALFDIWGQGTTVTVSSGGCGGGEVAALEKEVAALEKEVAALEKEVAALEK
notes: ROR1×CD3 two chain diabody; VL(4): S17G; VH: parental

Target: T1, His-tagged soluble human ROR1 (shROR1-His) (human, UniProt Q01973 30-406)
T1 construct: also called ROR1 protein; immobilized ROR1; not shown: His-Tag
T1 sequence (Q01973 30-406): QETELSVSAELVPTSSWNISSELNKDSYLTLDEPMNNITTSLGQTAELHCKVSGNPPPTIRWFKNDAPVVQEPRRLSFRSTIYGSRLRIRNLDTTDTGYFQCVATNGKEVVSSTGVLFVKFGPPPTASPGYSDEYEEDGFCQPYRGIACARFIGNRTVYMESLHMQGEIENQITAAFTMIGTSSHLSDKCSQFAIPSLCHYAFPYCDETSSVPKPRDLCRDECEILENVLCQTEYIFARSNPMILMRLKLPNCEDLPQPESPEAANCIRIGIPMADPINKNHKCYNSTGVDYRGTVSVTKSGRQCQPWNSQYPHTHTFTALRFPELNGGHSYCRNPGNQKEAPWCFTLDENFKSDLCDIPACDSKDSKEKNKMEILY
Test: SPR (Biacore), diabody captured via anti-E/K-coil, shROR1-His as analyte
Description: The binding kinetics of DART-1 to DART-6, DART-10 to DART-17, DART-20 to DART-33 was investigated using Biacore analysis in which ROR1 protein was passed over immobilized diabodies. Briefly, each diabody construct was captured on immobilized anti-E/K-coil surface and was incubated with shROR1-His at 25 and 100 nM, and the kinetics of binding were determined via Biacore analysis.

Going from B1 to B2, the Kd rises from 1.5 nM to 4 nM (2.7-fold).

Compared with B3, B4 is 3.5-fold lower in Kd: 6 nM for the first, 1.7 nM for the second.

Going from B5 to B6, the Kd rises from 1.2 nM to 5.7 nM (4.8-fold).

Compared with B7, B8 is 1.7-fold lower in Kd: 4.5 nM for the first, 2.7 nM for the second. The second binds more tightly here.

Going from B9 to B10, the Kd rises from 1.4 nM to 3.7 nM (2.6-fold).

B1 was tested, and the “fold enhancement of binding relative to DART-1” value was over 2 fold.
